Experimental data: CN106749661A (UNIV BEIJING, dated 2017)

T1: PSMP真核蛋白 (human, UniProt Q1L6U9 36-139)
T1 construct: mature; Eukaryotically expressed secreted PSMP; The expression construct and any tags are not described; also called 重组PSMP真核蛋白; PSMP分泌蛋白
T1 sequence (looked up): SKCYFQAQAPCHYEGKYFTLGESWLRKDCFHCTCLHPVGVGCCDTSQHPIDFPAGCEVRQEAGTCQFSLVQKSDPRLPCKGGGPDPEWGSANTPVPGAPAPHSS

T2: PC3细胞内源性PSMP蛋白 (human, UniProt Q1L6U9 36-139, limits assumed)
T2 construct: Detected by Western blot and by immunocytochemistry in PC3 cells
T2 sequence (looked up): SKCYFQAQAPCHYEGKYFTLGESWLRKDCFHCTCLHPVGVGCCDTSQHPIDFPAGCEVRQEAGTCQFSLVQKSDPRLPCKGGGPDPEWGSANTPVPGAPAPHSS

T3: PSMP蛋白 (human, UniProt Q1L6U9 36-139, limits assumed)
T3 sequence (looked up): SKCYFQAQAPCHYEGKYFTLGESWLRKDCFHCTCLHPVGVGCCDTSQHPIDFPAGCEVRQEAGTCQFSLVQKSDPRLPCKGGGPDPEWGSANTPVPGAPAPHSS


Legend:
[1] = target: T1, PSMP真核蛋白; assay: ELISA
[2] = target: T2, PC3细胞内源性PSMP蛋白; assay: Western blot of PC3 cells
[3] = target: T3, PSMP蛋白; assay: cytometric bead array, rabbit polyclonal on beads, 3D5 at 5 μg/ml as detection antibody
[4] = target: T3, PSMP蛋白; assay: ELISA with 293T expression supernatant

binding result [1]	binding result [2]	binding result [3]	binding result [4]	Binder
binds	binds	binds		抗PSMP的单克隆抗体3D5 (antibody, V domains shown, Mouse hybridoma antibody, heavy chain IgG1, light chain kappa, purified from ascites on Protein G Sepharose; also called 鼠单抗3D5; 3D5中和抗体) VH: EVQLQQSGPELVKPGASVKISCKASGYSFTGYFMNWVMQSHGKSLEWIGRINPYNGDTFYNQKFKGKATLTVDKSSSTAHMELRSLASEDSAVYYCARGGDGYYAFAYWGQGTLVTVSA VL: NIVMTQSPKSMSMSVGERVTLSCRASENVGTYVSWYQQKPEQSPKLLIYGASNRYTGVPDRFTGSGSATDFTLTISSVQAEDLADYHCGQSYSYMYTFGGGTKLEIKR
			binds	共转染含有3D5重链和轻链基因的质粒的293T上清中表达的抗体 (antibody, V domains shown, It was tested as culture supernatant) VH: EVQLQQSGPELVKPGASVKISCKASGYSFTGYFMNWVMQSHGKSLEWIGRINPYNGDTFYNQKFKGKATLTVDKSSSTAHMELRSLASEDSAVYYCARGGDGYYAFAYWGQGTLVTVSA VL: NIVMTQSPKSMSMSVGERVTLSCRASENVGTYVSWYQQKPEQSPKLLIYGASNRYTGVPDRFTGSGSATDFTLTISSVQAEDLADYHCGQSYSYMYTFGGGTKLEIKR
